The values below come from patent publication US20080038273A1 (INSTITUT NATIONAL DE LA SANTE ET DE LA RECHERCHE MEDICALE …, published 2008).

The experiment deals with T1, Recombinant human CD28 (human, UniProt P10747 19-152, limits assumed).
T1 construct: also called CD28 molecule
In words: BIACORE, recombinant human CD28 immobilized.

Source text: Recombinant human CD28 was immobilized on the biosensor (BIACORE) detector.

B1: CD28.3 scFv/α1-antitrypsin fusion protein (other)
chain: DYKDIVKLQQSGAELVKPGASVRLSCKASGYTFTEYIIHWIKLRSGQGLEWIGWFYPGSNDIQYNAKFKGKATLTADKSSSTVYMELTGLTSEDSAVYFCARRDDFSGYDALPYWGQGTMVTVSSGGGGSGGGGSGGGGSDIQMTQSPASLSVSVGETVTITCRTNENIYSNLAWYQQKQGKSPQLLIYAATHLVEGVPSRFSGSGSGTQYSLKITSLQSEDFGNYYCQHFWGTPCTFGGGTKLEIKRTVAAPSEFNKITPNLAEFAFSLYRQLAHQSNSTNIFFSPVSIATAFAMLSLGTKADTHDEILEGLNFNLTEIPEAQIHEGFQELLRTLNQPDSQLQLTTGNGLFLSEGLKLVDKFLEDVKKLYHSEAFTVNFGDTEEAKKQINDYVEKGTQGKIVDLVKELDRDTVFALVNYIFFKGKWERPFEVKDTEEEDFHVDEVTTVKVPMMKRLGMFNIQHCKKLSSWVLLMKYLGNATAIFFLPDEGKLQHLENELTHDIITKFLENEDRRSASLHLPKLSITGTYDLKSVLGQLGITKVFSNGADLSGVTEEAPLKLSKAVHKAVLTIDEKGTEAAGAMFLEAIPMSIPPEVKFNKPFVFLMIEQNTKSPLFMGKVVNPTQKLEGEFEQKLISEEDLNHHHHH
notes: The pIG6 product would also carry DYKD at the N-terminus; not shown: c-myc marker and polyhistidine marker of the vector (pIG6 or pSECTagB)
B1: the Ka was found to be 2.86e+09 M⁻¹ and the Kd was 349 pM.
